The text below walks through data of patent US20110288276A1 (AstraZeneca / MedImmune, published 2011).

Experiment [1] addresses T1, Human FcRn (soluble human neonatal Fc receptor) (human, UniProt P55899 24-290; P61769 21-119, limits assumed).
T1 construct: also called soluble human FcRn
Nature of the experiment: SPR (BIAcore 3000), ratio of steady-state Kd values, pH 6.0. The source says: (§1) The interaction of soluble human FcRn with immobilized unmutated human Fc and Fc/YTE was monitored by surface plasmon resonance detection using a BIAcore 3000 instrument (GE Healthcare, Piscataway, N.J.). Unmutated human Fc and Fc/YTE were first coupled to the dextran matrix of a CM5 sensor chip (GE Healthcare) using an Amine Coupling Kit at a surface density of between 4139 and 4291 RU according to the manufacturer's instructions. Human FcRn was used in equilibrium binding experiments at concentrations ranging from 1.46 nM to 3 uM at a flow rate of 5 uL/min. Dilutions and binding experiments were carried out at 25° C. in phosphate buffered saline (PBS), pH 6.0 containing 0.05% Tween 20. Steady-state binding data were collected for 50 min. Both Fc surfaces were regenerated with six 1-min injection of PBS, pH 7.4 containing 0.05% Tween 20. Human FcRn was also allowed to flow over an uncoated cell. The sensorgrams from these blank runs were then subtracted from those obtained with Fc-coupled chips. Dissociation constants (Kds) were determined by fitting the corresponding binding isotherms.

Experiment [2] concerns the target T1, Human FcRn (soluble human neonatal Fc …). Nature of the experiment: SPR (BIAcore 3000), Fc amine-coupled to CM5 chip, soluble human FcRn 1.46 nM to 3 uM, steady-state binding isotherm, PBS pH 6.0 with 0.05% Tween 20, 25 C; error is SD of 2 experiments.
Excerpt: as §1
^a Affinity measurements were carried out by BIAcore as described in Materials and Methods. Errors were estimated as the standard deviations of 2 independent experiments for each interacting pair.
(In general: Surface plasmon resonance follows binding to a sensor surface in real time, without labels.)

T1 sequence (P55899 24-290 limits assumed, chain 1 of 2): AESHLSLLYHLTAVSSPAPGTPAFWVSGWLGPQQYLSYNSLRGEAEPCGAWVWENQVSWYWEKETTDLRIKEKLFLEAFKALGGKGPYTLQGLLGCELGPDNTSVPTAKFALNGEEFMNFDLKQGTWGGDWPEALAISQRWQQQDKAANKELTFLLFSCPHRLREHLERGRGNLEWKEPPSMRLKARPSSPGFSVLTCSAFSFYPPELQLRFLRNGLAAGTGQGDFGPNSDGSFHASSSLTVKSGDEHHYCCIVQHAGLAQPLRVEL
T1 sequence (P61769 21-119 limits assumed, chain 2 of 2): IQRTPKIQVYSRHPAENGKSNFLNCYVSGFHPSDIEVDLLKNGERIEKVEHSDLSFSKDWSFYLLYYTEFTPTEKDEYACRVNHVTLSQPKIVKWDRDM

B1: Fc/YTE (human IgG1 Fc fragment containing the M252Y/S254T/T256E triple substitution) (other)
chain: GGPSVFLFPPKPKDTLYITREPEVTCVVVDVSHEDPEVKFNWYVDGVEVHNAKTKPREEQYNSTYRVVSVLTVLHQDWLNGKEYKCKVSNKALPAPIEKTISKAKGQPREPQVYTLPPSREEMTKNQVSLTCLVKGFYPSDIAVEWESNGQPENNYKTTPPVLDSDGSFFLYSKLTVDKSRWQQGNVFSCSVMHEALHNHYTQKSLSLS
modifications: one branched N-linked carbohydrate chain attached to N297 (EU numbering)
notes: Fc portion (heavy chain residues 223-447, EU) of MEDI-524 with M252Y/S254T/T256E, expressed in HEK 293 cells; It consists of two chemically identical polypeptides with at least one interchain disulfide at C226 and/or C229; In the assay it was amine-coupled to a CM5 chip; also called human IgG Fc variant; YTE-modified human Fc
B1: the “fold higher binding affinity than the unmutated human Fc” value in experiment [1] is around 8 fold. Moreover, the Kd (in general, the concentration at which binding is half-saturated) in experiment [2] was determined as 72 nM.
